Legend:
KPL4 = assay: KPL4-GFP orthotopic breast cancer model, response to chemotherapy; assay type: in vivo, SCID/beiz mice; conditions: following completion of chemotherapy regimen; tumors subsequently recurred
Experimental: Several cancer models that show significant regression in response to chemotherapy followed by tumor relapse after the cessation of therapy (FIG. 1) were generated and used to study the cells that are responsible for tumor re-initiation. These cells are tumor reinitiating cells (TRICs). In order to generate the models, GFP labeled human tumor cells were transplanted subcutaneously, and when tumor size reached ˜200 mm^3, mice were treated with either vehicle or chemotherapy as shown in the respective models. GFP+ tumor cells were isolated from regressed or vehicle treated tumors by FACS-sorting after enzymatic digestion and dissociation. Tumors were collected a minimum of one week after the last dose of chemotherapy and before the resumption of tumor growth.
GFP-expressing sublines of the human breast cancer cell line KPL4 were transplanted orthotropically to the mammary fat pad of SCID/beiz mice. For the KPL4 model, chemotherapy consisted of Paclitaxel (20 mg/kg, i.v. every other day for 5 doses). FIG. 2C (data presented as mean tumor volume±SEM, n=12 mice/group).

[1] = system: LSL-K-ras^G12D lung tumors; conditions: LSL-K-ras^G12D mice (Oliver et al., 2010); cited from earlier work
[2] = system: LSL-K-ras^G12D; p53^Fl/+ lung tumors; assay: LSL-K-ras G12D; p53 Fl/+ lung tumor model, micro-CT tumor burden; assay type: in vivo, mice
[3] = system: LSL-K-ras^G12D lung tumors; assay: LSL-K-ras G12D x Z/EG mouse NSCLC model, FACS of GFP-positive tumor cells; assay type: in vivo; conditions: one week after final dose of cisplatin, vs vehicle controls
Experimental: In addition, the LSL-K-ras^G12D genetically engineered mouse model of NSCLC (Jackson et al., 2001) was crossed to the Z/EG Cre-reporter strain (Novak et al., 2000) and used in this study. Cisplatin (7 mg/kg i.p. every 7 days for 3 doses) was started 12 weeks after AdenoCre infection of the lungs (ie. tumor initiation). Lungs were collected 1 week after the last dose of chemotherapy and tumor cells were isolated by FACS after enzymatic digestion and dissociation. […] FIG. 2D (data presented as the average number of GFP positive cells per lung±SEM, n=6/group).

[4] = system: LSL-K-ras^G12D; p53^Fl/Fl lung tumors; assay: LSL-K-ras G12D; p53 Fl/Fl lung tumor model, micro-CT tumor burden; assay type: in vivo, mice
NRG1/HER3 signaling = assay: HER4-ECD added to serum starved LKPH1 and LKPH2 cells, Western blotting; assay type: cell-based, mouse; conditions: HER4ECD 2 mg/ml, 48 hours
HER4 = HER4 knockdown in Calu3-shHER4 cells, qPCR; assay type: cell-based, human; conditions: dox 2 ug/ml
[5] = system: Calu3-shHer4 xenograft tumors; assay: Calu3-shHER4 xenograft tumor growth; assay type: in vivo, mice; conditions: dox vs sucrose
H1299-shNRG1.2 = H1299-shNRG1.2 in vivo study; conditions: magnitude of growth inhibition smaller than with shNRG1
NRG1 mRNA = NRG1 mRNA levels in H1299 subline expressing shNRG1.2; assay type: cell-based, human; conditions: compared with shNRG1
H441 cells = assay: Exogenous NRG1 stimulation of serum starved H441 cells, Western blotting; assay type: cell-based, human; conditions: 1 uM NRG1, ten minutes
[6] = system: Calu3-shHER3 xenograft tumors; assay: Calu3-shHER3 xenograft tumor growth; assay type: in vivo, mice; conditions: dox treatment; vs sucrose TDT=11 days
HER3 = HER3 knockdown in Calu3-shHER3 cells, qPCR and Western blot; assay type: cell-based, human

CC(=O)O[C@H]1C(=O)[C@@]2(C)[C@H]([C@H](OC(=O)c3ccccc3)[C@]3(O)C[C@H](OC(=O)[C@H](O)[C@@H](NC(=O)c4ccccc4)c4ccccc4)C(C)=C1C3(C)C)[C@]1(OC(C)=O)CO[C@@H]1C[C@@H]2O [Paclitaxel]
tumor size vs vehicle-treated mice (KPL4): significantly smaller

N.N.[Cl][Pt][Cl] [cisplatin]
survival [1]: does not result in prolonged survival | average tumor burden at conclusion of study and overall tumor growth rate vs vehicle ([2]; cisplatin+control IgG2A): not significantly different | number of GFP-positive tumor cells per lung [3]: significant decrease in tumor cell number

HER4-ECD: fusion of the human HER4 extracellular domain to murine IgG2A Fc; ligand trap to sequester NRG1
effect on tumor growth ([4]; HER4-ECD treatment alone): no effect | tumor burden by micro-CT ([4]; day 28, cisplatin+HER4-ECD vs cisplatin+vehicle and all other groups): significant reduction in tumor burden | tumor growth (average tumor burden and tumor growth rate) ([2]; cisplatin+HER4-ECD combination): significant inhibition of tumor growth | p-HER3 levels (NRG1/HER3 signaling): diminished

B1: shHER4: dox-inducible shRNA to HER4 (SEQ ID NO: 5 and 6) (nucleic acid)
chain 1: GATCCCCGATCACAACTGCTGCTTAATTCAAGAGATTAAGCAGCAGTTGTGATCTTTTTTGGAAA
chain 2: AGCTTTTCCAAAAAAGATCACAACTGCTGCTTAATCTCTTGAATTAAGCAGCAGTTGTGATCGGG
HER4 transcript levels (HER4): decreased | inhibition of tumor growth [5]: not a notable inhibition of tumor growth

B2: shNRG1.2: a different doxycycline-inducible shRNA to NRG1 (SEQ ID NO: 3 and 4) (nucleic acid)
chain 1: GATCCCCGAGTATATGTGCAAAGTGATTCAAGAGATCACTTTGCACATATACTCTTTTTTGGAAA
chain 2: AGCTTTTCCAAAAAAGAGTATATGTGCAAAGTGATCTCTTGAATCACTTTGCACATATACTCGGG
response to chemotherapy upon NRG1 knockdown (H1299-shNRG1.2): enhanced response to chemotherapy | reduction in NRG1 mRNA levels (NRG1 mRNA): more modest reduction

B3: NRG1: recombinant human NRG1 beta-1 extracellular domain (R&D systems), exogenous ligand (protein, UniProt Q02297 20-242, looked up)
extracellular domain: SGKKPESAAGSQSPALPPRLKEMKSQESAAGSKLVLRCETSSEYSSLRFKWFKNGNELNRKNKPQNIKIQKKPGKSELRINKASLADSGEYMCKVISKLGNDSASANITIVESNEIITGMPASTEGAYVSSESPIRISVSTEGANTSSSTSTSTTGTSHLVKCAEKEKTFCVNGGECFMVKDLSNPSRYLCKCQPGFTGARCTENVPMKVQNQEKAEELYQKR
modifications: extracellular domain
notes: recombinant human NRG1 beta-1 extracellular domain (R&D systems), exogenous ligand
levels of p-Stat3 or p-Mek1/2 (H441 cells): no detectable changes | p-HER3 and p-AKT (H441 cells): increase

B4: shHER3: dox-inducible shRNA to HER3 (SEQ ID NO: 7 and 8) (nucleic acid)
chain 1: GATCCCCAAGAGGATGTCAACGGTTATTCAAGAGATAACCGTTGACATCCTCTTTTTTTTGGAAA
chain 2: AGCTTTTCCAAAAAAAAGAGGATGTCAACGGTTATCTCTTGAATAACCGTTGACATCCTCTTGGG
time to doubling (TDT) [6]: 19 days | HER3 transcript levels (HER3; dox 2 ug/ml, qPCR): decreased | extent of p-AKT down-regulation (HER3; in the presence of dox, compared with Calu3-shHER4): much greater

— patent US9556249B2, “Neuregulin antagonists and use thereof in treating cancer” (Genentech, Inc., priority 2010, dated 2017)
